Assay results published in IntAct's records for PubMed 24880343.

Target: pan3_drome PAN3 (UniProt Q95RR8)
Sequence (Q95RR8 whole entry): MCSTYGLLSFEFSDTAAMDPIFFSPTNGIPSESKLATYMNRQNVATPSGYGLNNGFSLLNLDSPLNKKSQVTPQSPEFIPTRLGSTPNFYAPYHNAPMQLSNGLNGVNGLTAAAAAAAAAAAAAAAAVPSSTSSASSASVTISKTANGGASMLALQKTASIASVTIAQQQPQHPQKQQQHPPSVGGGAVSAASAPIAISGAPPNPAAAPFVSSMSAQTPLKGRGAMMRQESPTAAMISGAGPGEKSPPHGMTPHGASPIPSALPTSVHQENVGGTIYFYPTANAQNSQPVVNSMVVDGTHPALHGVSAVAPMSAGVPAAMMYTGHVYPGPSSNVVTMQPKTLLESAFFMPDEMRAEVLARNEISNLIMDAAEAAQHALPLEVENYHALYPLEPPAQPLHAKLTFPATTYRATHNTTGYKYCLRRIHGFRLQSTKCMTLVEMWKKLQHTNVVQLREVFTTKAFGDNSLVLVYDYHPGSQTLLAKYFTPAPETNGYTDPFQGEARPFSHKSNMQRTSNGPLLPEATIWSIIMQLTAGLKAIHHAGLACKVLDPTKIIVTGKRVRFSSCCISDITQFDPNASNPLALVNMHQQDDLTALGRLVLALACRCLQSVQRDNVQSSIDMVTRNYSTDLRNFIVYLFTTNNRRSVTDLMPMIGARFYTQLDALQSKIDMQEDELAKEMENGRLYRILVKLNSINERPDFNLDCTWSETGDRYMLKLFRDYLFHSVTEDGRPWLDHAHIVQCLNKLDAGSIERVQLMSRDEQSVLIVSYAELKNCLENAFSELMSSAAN

PAN2-PAN3 deadenylation complex catalytic subunit PAN2 (Drosophila melanogaster (Fruit fly)), A1Z7K9 T97R;H102G, sequence (A1Z7K9 whole entry T97R/H102G, one chain of several): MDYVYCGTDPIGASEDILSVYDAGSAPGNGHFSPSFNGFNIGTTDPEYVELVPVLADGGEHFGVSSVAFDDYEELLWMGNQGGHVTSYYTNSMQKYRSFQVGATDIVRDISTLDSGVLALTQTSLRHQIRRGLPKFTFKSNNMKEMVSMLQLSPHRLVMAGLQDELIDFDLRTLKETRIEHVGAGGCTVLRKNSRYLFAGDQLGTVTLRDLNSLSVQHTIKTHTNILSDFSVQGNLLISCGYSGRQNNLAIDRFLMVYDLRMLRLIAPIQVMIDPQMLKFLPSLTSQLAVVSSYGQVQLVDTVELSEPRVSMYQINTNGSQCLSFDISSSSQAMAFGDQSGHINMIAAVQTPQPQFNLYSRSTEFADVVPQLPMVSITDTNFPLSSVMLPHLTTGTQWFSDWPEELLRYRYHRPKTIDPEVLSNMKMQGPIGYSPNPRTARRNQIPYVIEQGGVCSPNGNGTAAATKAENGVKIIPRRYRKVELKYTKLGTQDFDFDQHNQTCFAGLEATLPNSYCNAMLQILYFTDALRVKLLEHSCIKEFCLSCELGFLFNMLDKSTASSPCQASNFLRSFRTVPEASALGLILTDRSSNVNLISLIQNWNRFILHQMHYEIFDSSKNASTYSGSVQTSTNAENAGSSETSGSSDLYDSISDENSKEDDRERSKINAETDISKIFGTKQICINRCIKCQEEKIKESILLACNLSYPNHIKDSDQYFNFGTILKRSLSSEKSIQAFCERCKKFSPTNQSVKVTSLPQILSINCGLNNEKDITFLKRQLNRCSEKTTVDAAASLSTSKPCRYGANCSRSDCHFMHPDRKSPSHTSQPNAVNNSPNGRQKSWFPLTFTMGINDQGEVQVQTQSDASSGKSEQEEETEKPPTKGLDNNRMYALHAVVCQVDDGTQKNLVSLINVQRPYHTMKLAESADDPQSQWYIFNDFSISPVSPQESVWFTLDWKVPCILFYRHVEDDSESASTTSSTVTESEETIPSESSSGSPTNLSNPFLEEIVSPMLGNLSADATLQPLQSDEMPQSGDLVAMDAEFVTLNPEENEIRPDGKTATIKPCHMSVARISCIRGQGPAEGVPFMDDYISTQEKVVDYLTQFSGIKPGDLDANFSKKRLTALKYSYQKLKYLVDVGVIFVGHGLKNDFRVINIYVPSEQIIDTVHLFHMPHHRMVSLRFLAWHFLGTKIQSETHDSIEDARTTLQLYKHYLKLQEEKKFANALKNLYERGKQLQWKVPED

Substance: PAN2-PAN3 deadenylation complex catalytic subunit PAN2 (Drosophila melanogaster (Fruit fly)), A1Z7K9 T97R;H102G
- effect of a mutation on the interaction: disrupting interaction strength
